T1: CAβBP peptide (catalase residues 400-409) (human, UniProt P04040 400-409)
T1 construct: range 400-409; 20 covers only catalase 402-414; also called CAIIBP; CARBP
T1 peptide (looked up): GAPNYYPNSF

B1: EAβBP peptide (ERAB residues 99-108) (peptide, UniProt Q99714 99-108, looked up)
peptide: KTYNLKKGQT
notes: range 99-108; 21 covers only ERAB 101-109; also called EAβBD
B2: Aβ 12-28 (peptide)
peptide: VHHQKLVFFAEDVGSNK
modifications: also: biotinylated, site not given here
notes: also called biotinylated Aβ 12-28
B3: Aβ 25-35 (peptide)
peptide: GSNKGAIIGLM
modifications: also: biotinylated in some assays, site not given here
notes: Used both biotinylated and unlabelled; also called biotinylated Aβ 25-35

Experiment [1] concerns the target T2, Aβ 1-42 (biotinylated (LinKit-Biolink kit, site not stated) where used as the labelled tracer; unlabelled where used as competitor or in activity assays).
T2 construct: catalase and cytotoxicity assays; also called biotinylated Aβ 1-42; Amyloid-β 1-42
The experiment is described as follows: competition ELISA, EAβBP-coated plate, Scatchard analysis. As to the method: (§1) After washing to remove unbound material, an alkaline phosphatase polymer-streptavidin conjugate (Sigma, Dorset, UK) was added and incubated at 37° C. for 2 hours. After washing to remove unbound material, p-nitrophenylphosphate substrate was added and absorbance at 405 nm determined.
(In general: In an ELISA, binding on a coated surface is turned into a signal by an enzyme label.)

Experiment [2] deals with T1, CAβBP peptide (catalase residues …). The experiment is described as follows: ELISA, CAβBP-coated plate. As to the method: as §1
In experiment [3] the target is T3, recombinant human cdc2 (human, UniProt P06493 1-297, limits assumed).
T3 construct: Coated on ELISA plates at 1 µg/ml; also called p34-cdc2
In words: ELISA, cdc2-coated plate, biotinylated peptide 200 pM. On the procedure: (§2) ELISA plates were coated with recombinant human cdc2 or the cdc2 119-133 peptide fragment (CDKP1) (1 μg ml⁻¹) in carbonate buffer and unoccupied sites blocked with 5% (w/v) dried milk. […] After washing to remove unbound material, an alkaline phosphatase polymer-streptavidin conjugate (Sigma, Dorset, UK) was added and incubated at 37° C. for 2 hours. After washing to remove unbound material p-nitrophenylphosphate substrate was added and absorbance at 405 nm determined.

The target of experiment [4] is B1. The experiment is described as follows: ELISA, EAβBP-coated plate. As to the method: as §1
Experiment [5] has as its target T4, recombinant human cyclin B1 (human, UniProt P14635 1-433, limits assumed).
T4 construct: Coated on ELISA plates
The experiment is described as follows: ELISA, cyclin B1-coated plate. As to the method:
as §2
Cyclins are co-factors for cdc2 which are required for enzyme activity. These proteins also contain substrate recognition sequences which may play a role in the recruitment of substrate molecules to the active cdc2/cyclin complex. The recombinant cdc2/cyclin enzyme complex used in the above phosphorylation experiments contained cyclin B1. […] Binding assays as described above using cyclin B1 coated plates were carried out.

Where no end group is shown, it is not given here.

T3 sequence (P06493 whole entry): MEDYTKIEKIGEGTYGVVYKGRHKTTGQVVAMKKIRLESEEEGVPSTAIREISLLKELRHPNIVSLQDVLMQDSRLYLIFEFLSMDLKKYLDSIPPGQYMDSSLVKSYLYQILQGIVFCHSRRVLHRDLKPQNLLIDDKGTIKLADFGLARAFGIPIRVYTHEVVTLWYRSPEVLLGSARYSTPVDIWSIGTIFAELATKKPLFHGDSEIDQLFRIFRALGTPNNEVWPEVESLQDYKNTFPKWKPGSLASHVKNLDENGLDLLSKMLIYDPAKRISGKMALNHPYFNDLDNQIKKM
T4 sequence (P14635 whole entry): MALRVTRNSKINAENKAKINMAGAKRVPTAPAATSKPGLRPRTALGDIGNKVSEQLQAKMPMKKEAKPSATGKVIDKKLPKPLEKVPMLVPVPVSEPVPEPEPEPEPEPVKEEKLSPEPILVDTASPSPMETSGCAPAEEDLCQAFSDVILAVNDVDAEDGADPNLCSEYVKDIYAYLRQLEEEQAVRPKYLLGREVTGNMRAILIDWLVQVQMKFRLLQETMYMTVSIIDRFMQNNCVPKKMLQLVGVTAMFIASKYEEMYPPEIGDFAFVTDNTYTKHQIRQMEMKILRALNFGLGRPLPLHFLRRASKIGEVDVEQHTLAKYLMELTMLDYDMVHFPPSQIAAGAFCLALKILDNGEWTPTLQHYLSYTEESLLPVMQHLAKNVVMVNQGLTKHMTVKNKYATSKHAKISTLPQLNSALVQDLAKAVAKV

Molecule B1 displayed a Kd in experiment [1] of 107 nM.

On to B2, for which, in experiment [2], the binding result is reported as “no binding (tested: 200 pM biotinylated peptide)”.

Turning to B3, the binding result in experiment [3] is given as “binds”; in experiment [4] it was “no binding (tested: 200 pM biotinylated peptide)”; in experiment [5], “binds”.

Usually Kd stands for the constant that tells how readily two partners part at equilibrium. High values mean lower affinity, low ones higher affinity.

The record behind these values is patent US20040072753A1 (published 2004).
